Reference: paper PMC5615192 (mBio, 2017)
Where a chain is given by its changes, count along the chain named. Names and notes keep the numbering of the source.

T1: HPV59 L1 pentamer (human papillomavirus type 59)
T1 chain: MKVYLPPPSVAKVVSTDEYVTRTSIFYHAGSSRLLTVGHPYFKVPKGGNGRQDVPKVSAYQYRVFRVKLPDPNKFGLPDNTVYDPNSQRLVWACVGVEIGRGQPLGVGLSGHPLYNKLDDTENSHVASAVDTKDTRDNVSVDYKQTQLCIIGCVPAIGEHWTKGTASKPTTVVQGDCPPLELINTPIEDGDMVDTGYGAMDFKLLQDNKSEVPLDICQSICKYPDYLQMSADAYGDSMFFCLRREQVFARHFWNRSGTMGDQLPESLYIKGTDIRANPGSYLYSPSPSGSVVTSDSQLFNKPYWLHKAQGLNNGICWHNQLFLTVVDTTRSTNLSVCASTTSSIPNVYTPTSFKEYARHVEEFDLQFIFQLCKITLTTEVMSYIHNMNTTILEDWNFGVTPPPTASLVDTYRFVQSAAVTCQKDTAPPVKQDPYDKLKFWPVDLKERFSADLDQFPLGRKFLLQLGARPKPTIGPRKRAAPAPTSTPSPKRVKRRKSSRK

T2: HPV59 L1 VLP (human papillomavirus type 59)
T2 chain: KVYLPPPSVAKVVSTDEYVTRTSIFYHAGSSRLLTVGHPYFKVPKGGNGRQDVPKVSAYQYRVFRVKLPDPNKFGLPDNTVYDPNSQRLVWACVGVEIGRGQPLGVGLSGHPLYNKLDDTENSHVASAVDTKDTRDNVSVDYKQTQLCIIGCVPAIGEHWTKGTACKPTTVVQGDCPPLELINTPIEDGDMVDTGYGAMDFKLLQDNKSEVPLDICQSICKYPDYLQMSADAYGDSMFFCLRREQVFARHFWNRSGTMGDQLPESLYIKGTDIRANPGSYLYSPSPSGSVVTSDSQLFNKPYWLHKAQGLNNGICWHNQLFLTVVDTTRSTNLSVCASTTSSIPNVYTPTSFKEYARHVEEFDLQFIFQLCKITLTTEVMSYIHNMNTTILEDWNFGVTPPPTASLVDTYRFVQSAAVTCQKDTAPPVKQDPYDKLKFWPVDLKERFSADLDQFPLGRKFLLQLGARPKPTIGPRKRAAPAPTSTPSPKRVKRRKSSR

T3: HPV58 L1 pentamer (human papillomavirus type 58, UniProt P26535 34-524)
T3 chain: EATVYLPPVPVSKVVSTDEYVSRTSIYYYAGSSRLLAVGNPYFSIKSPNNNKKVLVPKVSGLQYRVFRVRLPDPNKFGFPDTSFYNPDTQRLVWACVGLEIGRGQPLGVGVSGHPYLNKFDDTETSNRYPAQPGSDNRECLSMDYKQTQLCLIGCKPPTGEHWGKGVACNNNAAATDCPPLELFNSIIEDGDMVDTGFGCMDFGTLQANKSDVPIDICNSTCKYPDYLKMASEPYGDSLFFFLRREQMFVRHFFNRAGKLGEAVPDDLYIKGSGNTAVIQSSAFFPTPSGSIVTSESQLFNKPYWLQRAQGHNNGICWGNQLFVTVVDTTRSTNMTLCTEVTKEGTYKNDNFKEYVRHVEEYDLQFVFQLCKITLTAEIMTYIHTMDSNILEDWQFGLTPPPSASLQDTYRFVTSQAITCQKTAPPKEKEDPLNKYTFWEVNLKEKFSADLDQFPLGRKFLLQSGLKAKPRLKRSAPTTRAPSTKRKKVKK

T4: HPV58 L1 VLP (human papillomavirus type 58, UniProt P26535 34-524)
T4 chain: T3 chain

T5: HPV58 L1 VLP D154A (human papillomavirus type 58) (UniProt P26535)
T5 sequence: T3 chain with D121A

T6: HPV58 L1 VLP N308A (human papillomavirus type 58) (UniProt P26535)
T6 sequence: T3 chain with N275A

T7: HPV58 L1 VLP R161A (human papillomavirus type 58) (UniProt P26535)
T7 sequence: T3 chain with R128A

B1: HPV58 L1 pentamer R161A (natural protein)
chain: T3 chain with R128A
B2: HPV58 L1 pentamer S168A (natural protein)
chain: T3 chain with S135A
B3: HPV58 L1 pentamer D154A (natural protein)
chain: T3 chain with D121A
B4: HPV58 L1 pentamer N308A (natural protein)
chain: T3 chain with N275A
B5: HPV58 L1 pentamer N170A (natural protein)
chain: T3 chain with N137A
B6: HPV58 L1 pentamer Q165A (natural protein)
chain: T3 chain with Q132A
B7: MAb 28F10 (antibody, V domains shown)
VH: DVKLVESGGGLVKPGGSLKLSCAASGFPFSDYTMSWIRQTPEKRLEWVASISSGGTYTYYPDTVKGRFTISRDNAKNTLYLQMSSLKSEDTAMFYCTRASPYYDYDEGYMDYWGQGTSVTVSS
VL: DVVMTQTPLSLPVSLGDQASISCRSSQSLVHSNGNTYLHWYLQKSGQSPKLLIYKVSNRFSGVPDRFSGSGSGTDFTLKISRVEAEDLGVYFCSQSTHVPFTFGAGTKLELK
B8: MAb A12A3 (antibody, V domains shown)
VH: EVQLQQSGAELVRPGALVKLSCKASGFNIKDYYMHWVKQRPEQGLEWIGWIDPENGKTIYDPRFRGKASITADTSSNTAYLQLSSLTSEDAAVYYCATSNYRYDRSFDYWGQGTTLTVSA
VL: DIQMTQSPSSLFASLGGKVTITCKASQDINKYIAWFQHKPGKGPRLLIHYTFTLQPGIPSRFSGSGSGRDYSFSISNLEPEDIATYYCLQYHNLYTFGGGTKLEIK
notes: also called A12A3 IgG

Legend:
MAb A12A3 (mouse) = assay: SPR; Biacore 3000; MAb (10 ug/ml) captured on a CM-5 chip amine coupled with goat anti-mouse Fc fragment; serially diluted pentamer injected at 30 ul/min for 3.3 min; HBS (10 mM HEPES pH 7.4, 150 mM NaCl); three measurements, mean and standard deviation
[1] = biological target: HPV18 TQG L1 VLP (triple mutant T270Q, Q273E, G281D) (human papillomavirus type 18)
HPV59 L1 pentamer = biological target: T1, HPV59 L1 pentamer; assay: ELISA
HPV59 L1 VLP = biological target: T2, HPV59 L1 VLP; assay: ELISA
[2] = biological target: HPV59 L1 pentamer M267A (human papillomavirus type 59); assay: ELISA; indirect ELISA; wells coated with wild-type or mutant VLPs or pentamers (300 ng/well, overnight at 4°C); 2-fold serial dilutions of the antibody, 1 h at 37°C; detected with HRP goat anti-mouse IgG
[3] = biological target: HPV59 L1 pentamer Q270A (human papillomavirus type 59); assay: as above
[4] = biological target: HPV33 KAT L1 VLP (triple mutant K161R, A168S, T308N) (human papillomavirus type 33) (UniProt P06416)
HPV58 L1 pentamer [5] = biological target: T3, HPV58 L1 pentamer; assay: ELISA
HPV58 L1 VLP = biological target: T4, HPV58 L1 VLP; assay: ELISA
HPV58 L1 pentamer [6] = biological target: T8, HPV58 L1 pentamer (Human papillomavirus type 58 (GenBank …, UniProt P26535)); assay: SPR; Biacore 3000; MAb (10 ug/ml) […]; HBS (10 mM HEPES pH 7.4, 150 mM NaCl); […]; conditions: both partners purified
T8 construct: also called HPV58p; HPV58 pentamer; source: cloned into pTO-T7

[7] = biological target: T5, HPV58 L1 VLP D154A (human papillomavirus type 58); assay: ELISA; indirect ELISA; wells coated with wild-type or mutant VLPs or pentamers (300 ng/well, overnight at 4°C); 2-fold serial dilutions of the antibody, 1 h at 37°C; detected with HRP goat anti-mouse IgG
[8] = biological target: T6, HPV58 L1 VLP N308A (human papillomavirus type 58); assay: as above
[9] = biological target: T7, HPV58 L1 VLP R161A (human papillomavirus type 58); assay: as above

Binder	Ka (MAb A12A3 (mouse)) [M⁻¹]	Kd (MAb A12A3 (mouse)) [nM]	koff (MAb A12A3 (mouse)) [s⁻¹]	kon (MAb A12A3 (mouse)) [M⁻¹ s⁻¹]	other results
B1	994000	1120	9.98e-06	10.1	–
B2	1.62e+08	6.28	0.000522	54300	–
B3	4.18e+06	240	0.102	426000	–
B4	8.99e+06	112	0.0272	243000	–
B5	1.53e+08	6.52	0.000644	98400	–
B6	7.28e+07	13.8	0.00228	167000	–
B7	–	–	–	–	IC50 of neutralisation of HPV18 TQG PsVs [1]: 0.0097 µg/mL; EC50 (HPV59 L1 pentamer): 0.0464 µg/mL; EC50 (HPV59 L1 VLP): 0.005 µg/mL; fold increase of the EC50 against the WT HPV59 pentamer [2]: 10 fold; fold increase of the EC50 against the WT HPV59 pentamer [3]: 20 fold
B8	–	–	–	–	IC50 of neutralisation of the HPV33 KAT PsV mutant [4]: 4.3 µg/mL; EC50 (HPV58 L1 pentamer [5]): 0.0085 µg/mL; EC50 (HPV58 L1 VLP): 0.0104 µg/mL; Ka (HPV58 L1 pentamer [6]): 1.91e+08 M⁻¹; Kd (HPV58 L1 pentamer [6]): 5.33 nM; koff (HPV58 L1 pentamer [6]): 0.0004 s⁻¹; kon (HPV58 L1 pentamer [6]): 78400 M⁻¹ s⁻¹; fold increase of the EC50 against the WT HPV58 VLP [7]: 2 fold; fold increase of the EC50 against the WT HPV58 VLP [8]: 2 fold; fold increase of the EC50 against the WT HPV58 VLP [9]: 80 fold
